Reference: publication PMC8528238 (Nature, 2021)

Columns and labels:
[1] = target: SARS-CoV-2 RBD sortase A conjugated nanoparticle (24-mer SARS-CoV-2 RBD-ferritin nanoparticle) (SARS-CoV-2, Wuhan strain, UniProt P0DTC2); test: BLI
[2] = target: T1, monomeric SARS-CoV-2 RBD (wildtype Spike RBD monomer) (SARS-CoV-2, Wuhan strain, UniProt P0DTC2); test: ELISA
[3] = target: T1, monomeric SARS-CoV-2 RBD (wildtype …); test: SPR

B1: DH1041, SARS-CoV-2-specific ACE2-binding site-focused RBD neutralizing antibody (antibody, V domains shown)
VH: EVQLVESGGGLVQPGGSLRLSCAASGVTFSSYWMSWVRQAPGKGLEWVANIRQDGSEKYSVDSVKGRFTISRDNAKNSLYLQMNSLRAEDTAVYYCARARRADNSGYYGFHFDCWGQGTLVTVSS
VL: QSVLTQPPSVSGAPGQRVTISCTGSSSNIGAGYDVHWYQQLPGTAPKLLIYGNNNRPSGVPDRFSDSKSGTSASLAITRLQAEDEADYYCQSYDSSLSGWVFGGGTKLTVL
B1: binds [1]; binds [2].

B2: DH1047 antigen binding fragment (Fab) (Fab, V domains shown)
VH: QVQLVQSGAEVKKPGASVQVSCQASANTFTNHYIHWVRQAPGQGLEWMGIIYPTGGNTIYAQGFQGRVTMTRDTSLNTIYLELSSLRSEDTAVYYCARDVRVDDSWSGYDLLSGGTYFDYWGQGTLVTVSS
VL: not shown
B2 gave a Kd [3] of under 0.02 nM.
